Where no end group is shown, it is not given here.

1 molecule from patent US20090214555A1 can be followed below.

In this assay the target is rabbit polyclonal anti-Syn2vE1a antibodies. The assay is described as follows: epitope peptide competition: antisera pre-absorbed with 3 mg/ml synthetic epitope peptide, then Western blot on Syn2vE1a lysate.

B1: synthetic epitope peptide (C)…-amide (peptide)
peptide: CGIRRAPLYKRHPTGTA-NH2
B1 returned a percent of anti-Syn2vE1a signals blocked of more than 98%.
